Measurements as given in the nanobody polyreactivity screen of Harvey et al. (2022).

Assay: yeast display, Sf9 membrane polyspecificity reagent, FACS + sequencing; frameworks hold sequencing errors
Summary of the method: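 Synthetic nanobody libraries on Saccharomyces cerevisiae BJ5465 were galactose-induced for 36–48 hours, stained 1 hour at 4 °C with 10% biotinylated, detergent-solubilized Sf9 membrane reagent and enriched on streptavidin microbeads. FACS then separated cells into low and high (top ~1%) gates by anti-HA (expression) and streptavidin (reagent binding) fluorescence. Genes were colony-PCR amplified, MiSeq 2 × 250 sequenced and CDR-length filtered. A clone's polyreactivity label is that of its gate of origin.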

Row | Sequence | polyreactivity (PSR sort gate)
1 | QVQLVESGGGLVQAGGSLRLSCAASGSIFRYAMGWYRQAPGKEREFVAAITSRGGTTYYADSVKGRFTISRDNAKNTVYLLMNSLKPEDTAVYYCYAHRYATAGSWVVRHDYWGQGTQGTVSS | high polyreactivity
2 | QVQLVESGGGLVQAGGSLRLSCAASGFTFGHYAMGWYRQAPGKERELVAAISRSGGTTSYADSVKGRFTISRDNAKNTVYLQMNSLKPEDTAVYYCNKDYIWARYGGGRDYWGQGTQVTVSS | low polyreactivity
3 | QVQLVESGGGLVPAGGSLRLSCAASGRIFVVYSMGWYRQAPGKERELVASISGGSTNYADSVKGRFTISRDNAKNTVYLQMNSLKPEDTAVYFCGMEYWGQGTQVTVSS | low polyreactivity
4 | QVQLVESGGGLVQAGGSLRLSCAASGNIFRPYTMGWNRQEPGKERELVARISSGGSTNYADSVKGRFTISRDNAKNTVYFQMNSLKPEDTAVYYCAKRYGTVHSRYGYWGQGTQVTVSS | high polyreactivity
5 | QVQLVESGGGLVQAGGSLRLSCAASGRTLRRNAMGWYRQAPGKERELVAAITWSGTSTYYADSVKGRFTISRDNAKNTVDLQMNSLKPEDTAVYYCAAEVAYTDTEYFWYYYWGQGTQVTVSS | high polyreactivity
6 | QVQLVESGGGLVQAGGSLRLSCAASGLTFDYYAMGWYRQAPGKERELVAAITRRGGGTYYADSVKGRFTISRDNAKNTVYLQMNSLTPEDTAVYYCNADRRSWSALHRYDYWGQGTQVTVSS | high polyreactivity
7 | QVQHVESGGGLVQAGGSLRLSCAASGFIFPVYAMGWYRQAPGKDRELVAAISSGGITNYADSVKVRFTISRDNAKNTVYLQMNSLKPEDTAVYYCAARDYVRFGLYDYDYWGQGTQVTVSS | low polyreactivity
8 | QVQLVESGGGLVQAGGSLRLSCAASGRTFPYYAMGWYRQAPGKERELVARIRSDGSTNYADSVKGRFTISRDNAKNTVYLQINSLKPDDTAVYDCAAKPYPSLFFHYGYWGQGTQVTVSS | low polyreactivity
9 | QVQLQESGGGLVQAGGSLRLSCAASGTISYGSVMGWYRQAPGKERELDAGIGYGSTTNYADSVKGRFTISRDNAKNTVYLQMNSLKPDDTAVYYCARDLYYVYSFAPYRYEYWGHGTQVTVSS | low polyreactivity
10 | QVQLVESGGGLVQAGGSLRLSCAASGFISDVYAMGWYRQAPGKERELVAVITWRGSTYYADSVKGRFTISRDNAKNTVYLQMNSLKPEDTAVYYCAAESQGDWAFDYWGQGTQVTVSS | low polyreactivity
11 | QVQLVESGGGLVQAGGSLRLSCAASGFTFSWYAMGWYRQAPGKERELVAAISSAGNTNYADSVKGRFTISRDNAKNTVYLQMNSLKPEDTAVYYCAKRDYWGQGTQVTVSS | high polyreactivity
12 | QVQLVESGGGLVQSGGSLRLSCAASGLIFTSYAMGWYRQAPGKERELVAAISYSGGTTFYADYVKGRFTISRDNAKNTVYLQMNSLKPEDTAVYYCAADSLSTTHDTLGYDRDDYWGQGTQVTVSS | low polyreactivity
13 | QVQLVESGGGLVQAGGSLRLSCAASGFIFRYYAMGWYRQAPGKERELVAAIDYSGGSTNYADSVKGRFTISRDNAKNTVYLQMNSLKPEDTAVYYYDYWGQGTQVTVSS | low polyreactivity
14 | QDQLVESRGGLVQAGGSLRLSCAASGGTFRVYAMGWFIQAPGKERELVAAISSGGSTNYADSVNGRFTISRDNSKNTVYLQMNSLKPEDTAVYYCAADRVGWSVYRGDYWGHGTQVTVSS | high polyreactivity
15 | QVQLVESGGGLVQAGGSLRLSCAASGFTFIRYAMGWYIQAPGKERELVASISNRGGRTYYADSVKGRFTISRDNAKNTFYLQMNSLKPEDTAVYYCAAKFSSYWSRFGYWGQGTQVTVSS | high polyreactivity
16 | QVQLVESGGGLLQAGGSLRLSCAASGHIFRGYTMGWYRPAPGKERELVATITWNGVSTFYADSVKGRFTISRDTAKNTVYLQMNSLKPEDTSVYYCAAYYASHDYSGFWSDTYEYWGQGTQVTVSS | low polyreactivity
17 | QVQLVESGGGLVQAGGSLRLSCAASGRIFQYYAMGWYRQEPGKERELVAAISGSGGRTYYADSVKGRFTISRDNAKNTVYLQMNSLKPEDTAVYYCNAVYRYYPFDYWGQGTQVTVSS | high polyreactivity
18 | QVQLVESGGGLVQAGGSLRLSCAASGSIFIGYARGWYRQAPGKERELVAGISWSGGSTYYADSVKGRFSISRDNAKNTVYLQMNSLKPEDTAVYYCNADITLYYFWAWTYGYYYWGQGTQVTVSS | high polyreactivity
19 | QVQLVESGGGLVQAGVSLRLSCAASGFIFGLYVMGWYRQSPGKERELVAGITWTGGTTYYADSVKGRFTISRDNAKNTVYLQMNSLKPEDTAVYYCATRNYAVVPSVRREGYYWGQGTQVTVSS | low polyreactivity
20 | QVQLVESGRGLVQAGGSLRLSCAASGTTCLYYTMGWYRQAPGKERELVASISYSGGRTYYADSVKGRFTISRDNAKNTVYLQMNSLKPEDTAVYYCNKKRYYDGYDYWGQGTQVTVSS | high polyreactivity
21 | QVQLVESGGGLVQAGGSLRLSCAASGSIFVSNAMGWYRQAPGKEREMVAAISQSGGSTYYADSVKGLFTISRDNAKNTVYLQMNSLKPEDTEVYYCATPIRSGFRIYEYWGQGTQVTVSS | low polyreactivity
